One molecule from US6462016 (SHISEIDO, dated 2002) can be followed below.

Broadly, the Kd is a measure of binding affinity in units of concentration.

The target of the experiment is maxadilan (recombinant represented by SEQ ID NO: 2, peptide fragment GSIL- bound to the N-terminal cysteine … (Lutzomyia longipalpis (sand fly), UniProt P30659 24-86)). Nature of the experiment: ^125I-Max saturation binding and Scatchard plot, rabbit spleen crude membrane fraction, filtration.

B1: maxadilan receptor of the rabbit (maxadilan-specific receptor in crude membrane fractions from rabbit brain and rabbit spleen) (receptor)
chain: MAGVLQVSLAALLLLPAATAMHSDCIFKKEQALCLEKIQRANDLLGLNDSSPGCPGMWDNITCWKPAHVGEMVLVSCPELFRIFNPDQGEFDFAESTSLDLADMGVVSRNCTEDGWSEPFPHYFDACGFDEYESEPGDQDYYYLSVKALYTVGYSTSLVTLTTAMVILCRFRKLHCTRNFIHMNLFVSFMLRAISVFIKDWILYAEQDSNHCFVSTVECKAVMVFFHYCVVSNYFWLFIEGLYLFTLLVETFFPERRYFYWYTMIGWGTPTVCVAVWATLRLYFDDTGCWDMNDSTALWWVIKGPVVASIMVNFVLFIGIIIILVQKLQSPDTGGNESSIYLRLARSTLLLIPLFGIHYTVFAFSPENVSKRERLVFELGLGSFQGFVVAVLYCFLNGEVQAEIKRKWRSWKVNRYFAVDFKHRHPSLASSGVNGGTQLSILSKSSSQLRMSGLPADNLAT
With B1, the Kd was determined as 0.055 nM.
